According to PMC4856479:

Legend:
[1] = biological target: isolated HOIP-RBR/UbcH5B~ubiquitin complex (UniProt Q96EP0); assay: AUC
[2] = biological target: isolated HOIP-RBR/UbcH5B~ubiquitin complex (UniProt Q96EP0); assay: ITC

stoichiometry N [1] | Kd [2] | Substance
2 |  | isolated HOIP-RBR/UbcH5B~ubiquitin complex (from UniProt Q96EP0 696-1072; P62837 2-147; P0CG48 1-76)
 | > 50 µM | mono-ubiquitin (untagged, native N- and C-termini) (from UniProt P0CG48 1-76) (natural protein)
